Reference: patent publication EP4722243A1 (Beijing Dongfang Biotech Co. Ltd., dated 2026)
Read-outs that look alike come from different tables or passages of the source.

Experiments:
[1] = biological target: T1, IL-11-mFc ligand protein (human, UniProt P20809 22-199); experiment: cell-based or functional assay
T1 sequence (looked up): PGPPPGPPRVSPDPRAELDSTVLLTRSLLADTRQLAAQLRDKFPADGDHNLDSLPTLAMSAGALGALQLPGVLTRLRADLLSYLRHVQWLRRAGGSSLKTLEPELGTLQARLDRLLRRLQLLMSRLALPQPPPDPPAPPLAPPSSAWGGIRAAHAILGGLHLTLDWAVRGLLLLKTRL

[2] = biological target: T2, human IL-11 (human, UniProt P20809 22-199, limits assumed); experiment: ELISA, IL-11 coated, goat anti-mouse IgG-HRP detection
T2 construct: also called IL-11 antigen; IL-11 protein
T2 sequence (looked up): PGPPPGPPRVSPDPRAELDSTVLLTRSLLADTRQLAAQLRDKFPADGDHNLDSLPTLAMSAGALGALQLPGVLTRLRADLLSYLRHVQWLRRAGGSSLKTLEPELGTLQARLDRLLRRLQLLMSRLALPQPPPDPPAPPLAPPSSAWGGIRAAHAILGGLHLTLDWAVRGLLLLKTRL

[3] = biological target: T3, IL-11-Fc antigen (human, UniProt P20809 22-199, limits assumed); experiment: competition ELISA: IL-11-Fc coated, competitor IL-11RA-Fc (IgG4 type) at 0.5 ug/mL, anti-human IgG4-HRP detection
T3 construct: The construct is not described; not shown: Fc part
T3 sequence (looked up): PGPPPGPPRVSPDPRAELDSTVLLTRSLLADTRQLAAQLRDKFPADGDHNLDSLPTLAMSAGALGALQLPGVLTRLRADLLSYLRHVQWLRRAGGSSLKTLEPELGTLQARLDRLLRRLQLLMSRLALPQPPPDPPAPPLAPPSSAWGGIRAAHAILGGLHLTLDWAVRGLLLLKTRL

[4] = biological target: T1, IL-11-mFc ligand protein; experiment: flow cytometry: inhibition of IL-11-mFc binding to IL-11RA on BaF/3-IL-11RA cells, goat anti-mouse IgG-FITC detection
[5] = biological target: T2, human IL-11; experiment: ELISA, IL-11 coated, goat anti-human IgG Fab HRP detection
[6] = biological target: T2, human IL-11; experiment: cell-based or functional assay
[7] = biological target: T1, IL-11-mFc ligand protein; experiment: cell-based or functional assay; remark: listed apart in the source
[8] = biological target: T1, IL-11-mFc ligand protein; experiment: flow cytometry: inhibition of IL-11-mFc binding to GP130 on BaF/3-GP130 cells, goat anti-mouse IgG-FITC detection
[9] = biological target: T1, IL-11-mFc ligand protein; experiment: flow cytometry: inhibition of IL-11-mFc binding to IL-11RA on BaF/3-IL-11RA cells, goat anti-mouse IgG-FITC detection; remark: listed apart in the source

Binder | IC50 of inhibition of TIMP-1 secretion by MRC-5 cells stimulated with IL-11-mFc [1] [µg/mL] | EC50 [2] [µg/mL] | IC50 [3] [µg/mL] | IC50 [4] [µg/mL] | EC50 [5] [µg/mL] | further results
murine antibody molecule MA-I (mouse IgG1 / mouse Ckappa) (antibody, also called murine anti-IL-11 monoclonal antibody MA-I) heavy: EVKLEESGGGLVKPGGSLKLSCAASGFTFSDYYMFWVRQTPEKRLEWVATISDGGTYTYYPDSVKGRFTISRDNAKNNLYLQMTSLKSEDTAMYYCARDGGYVSSPEAMDYWGQGTSVTVSSAKTTPPSVYPLAPGSAAQTNSMVTLGCLVKGYFPEPVTVTWNSGSLSSGVHTFPAVLQSDLYTLSSSVTVPSSTWPSETVTCNVAHPASSTKVDKKIVPRDCGCKPCICTVPEVSSVFIFPPKPKDVLTITLTPKVTCVVVDISKDDPEVQFSWFVDDVEVHTAQTQPREEQFNSTFRSVSELPIMHQDWLNGKEFKCRVNSAAFPAPIEKTISKTKGRPKAPQVYTIPPPKEQMAKDKVSLTCMITDFFPEDITVEWQWNGQPAENYKNTQPIMDTDGSYFVYSKLNVQKSNWEAGNTFTCSVLHEGLHNHHTEKSLSHSPG light: DIVLTQSTSSLSASLGDRVTISCRASQDISNYLNWYQQKPDGTVKLLIYYTSRLHSGVPSRFSGSGSGTDYSLTISNLEQEDIATYFCQQGNTLPPTFGGGTKLEIKADAAPTVSIFPPSSEQLTSGGASVVCFLNNFYPKDINVKWKIDGSERQNGVLNSWTDQDSKDSTYSMSSTLTLTKDEYERHNSYTCEATHKTSTSPIVKSFNRNEC | 0.453 | 0.00341 | 0.331 | 3.3 |  | 
chimeric antibody CA-I (antibody, human IgG1, kappa, L234A L235A, Variable regions of MA-I on human IgG1 and human Ckappa constant regions) heavy: not shown light: DIVLTQSTSSLSASLGDRVTISCRASQDISNYLNWYQQKPDGTVKLLIYYTSRLHSGVPSRFSGSGSGTDYSLTISNLEQEDIATYFCQQGNTLPPTFGGGTKLEIKRTVAAPSVFIFPPSDEQLKSGTASVVCLLNNFYPREAKVQWKVDNALQSGNSQESVTEQDSKDSTYSLSSTLTLSKADYEKHKVYACEVTHQGLSSPVTKSFNRGEC |  |  |  |  | 0.0226 | 
chimeric antibody CA-II (antibody, human IgG1, kappa, L234A L235A, Variable regions of MA-II on human IgG1 and human Ckappa constant regions) heavy: not shown light: DIVLTQSTSSLSASLGDRVTISCRASQDISNYLNWYQQKPDGTVKLLIYYTSRLHSGVPSRFSGSGSGTDYSLTISNLEQEDIATYFCQQGNTLPWTFGGGTKLEIKRTVAAPSVFIFPPSDEQLKSGTASVVCLLNNFYPREAKVQWKVDNALQSGNSQESVTEQDSKDSTYSLSSTLTLSKADYEKHKVYACEVTHQGLSSPVTKSFNRGEC |  |  |  |  | 0.0464 | 
humanized antibody molecule HA-I-C (antibody, human IgG1, kappa, L234A L235A, V domains shown) VH: QVQLVESGGGLVKPGGSLRLSCAASGFTFSDYYMFWVRQAPGKGLEWVATISDGGTYTYYPDSVKGRFTISRDNAKNSLYLQMNSLRAEDTAVYYCARDGGYVSSPEAMDYWGQGTLVTVSS VL: DIVLTQSPSSLSASVGDRVTITCRASQDISNYLNWYQQKPGKAVKLLIYYTSRLHSGVPSRFSGSGSGTDYTFTISSLQPEDIATYFCQQGNTLPPTFGGGTKVEIKR |  |  |  |  | 0.0252 | IC50, reporter gene (BaF/3-GP130-STAT3-Luc cells stimulated with IL-11 protein, luciferase) [6]: 0.152 µg/mL; IC50 of inhibition of TIMP-1 secretion by MRC-5 cells stimulated with IL-11-mFc [7]: 0.343 µg/mL; IC50 [8]: 46.2 µg/mL; IC50 [9]: 4.87 µg/mL
humanized antibody molecule HA-II-B (antibody, human IgG1, kappa, L234A L235A, V domains shown) VH: QVQLVESGGGLVKPGGSLRLSCAASGFTFSDYYMFWVRQAPGKGLEWVATISDGGTYTYYPDSVKGRFTISRDNAKNSLYLQMNSLRAEDTAVYYCARDGGYVSSPEAMDYWGQGTLVTVSS VL: DIVLTQSPSSLSASVGDRVTITCRASQDISNYLNWYQQKPGKAPKLLIYYTSRLHSGVPSRFSGSGSGTDYTFTISSLQPEDIATYYCQQGNTLPWTFGGGTKVEIKR |  |  |  |  | 0.0883 | 
humanized antibody molecule HA-I-B (antibody, human IgG1, kappa, L234A L235A, V domains shown) VH: QVQLVESGGGLVKPGGSLRLSCAASGFTFSDYYMFWVRQAPGKGLEWVSTISDGGTYTYYPDSVKGRFTISRDNAKNSLYLQMNSLRAEDTAVYYCARDGGYVSSPEAMDYWGQGTLVTVSS VL: DIVLTQSPSSLSASVGDRVTITCRASQDISNYLNWYQQKPGKAPKLLIYYTSRLHSGVPSRFSGSGSGTDYTFTISSLQPEDIATYYCQQGNTLPPTFGGGTKVEIKR |  |  |  |  | 0.0232 | IC50, reporter gene (BaF/3-GP130-STAT3-Luc cells stimulated with IL-11 protein, luciferase) [6]: 0.103 µg/mL; IC50 of inhibition of TIMP-1 secretion by MRC-5 cells stimulated with IL-11-mFc [7]: 0.19 µg/mL; IC50 [8]: 39.6 µg/mL; IC50 [9]: 3.58 µg/mL

Now from value to binder, other results behind:

IC50 of inhibition of TIMP-1 secretion by MRC-5 cells stimulated with IL-11-mFc [1] [µg/mL] | EC50 [2] [µg/mL] | IC50 [3] [µg/mL] | IC50 [4] [µg/mL] | EC50 [5] [µg/mL] | Binder | further results
4.6 | 0.00425 | 0.778 | 59.1 |  | murine antibody molecule MA-IV (mouse IgG1 / mouse Ckappa) (antibody, V domains shown, also called murine anti-IL-11 monoclonal antibody MA-IV) VH: EVQLEESGGGLVKPGGSLKLSCVASGFTFSDYYMFWVRQTPEKRLEWVATISDGGSYSYYPDSVKGRFTISRDNAKNNLYLQMSSLRSEDTAMYYCARDGGYISSPEAMDYWGQGTSVTVSS VL: DIVLTQSTSSLSASLGDRVTISCRASQDISNYLNWYQQKPDGTVKLLIYYTSRLHSGVPSRFSGSGSGTDYSLTISNLEQEDIATYFCQQGNTLPPTFGGGTKLEIKA | 
0.475 | 0.00372 | 0.378 | 11.1 |  | murine antibody molecule MA-II (mouse IgG1 / mouse Ckappa) (antibody, also called murine anti-IL-11 monoclonal antibody MA-II) heavy: EVKLEESGGGLVKPGGSLKLSCAASGFTFSDYYMFWVRQTPEKRLEWVATISDGGTYTYYPDSVKGRFTISRDNAKNNLYLQMTSLKSEDTAMYYCARDGGYVSSPEAMDYWGQGTSVTVSSAKTTPPSVYPLAPGSAAQTNSMVTLGCLVKGYFPEPVTVTWNSGSLSSGVHTFPAVLQSDLYTLSSSVTVPSSTWPSETVTCNVAHPASSTKVDKKIVPRDCGCKPCICTVPEVSSVFIFPPKPKDVLTITLTPKVTCVVVDISKDDPEVQFSWFVDDVEVHTAQTQPREEQFNSTFRSVSELPIMHQDWLNGKEFKCRVNSAAFPAPIEKTISKTKGRPKAPQVYTIPPPKEQMAKDKVSLTCMITDFFPEDITVEWQWNGQPAENYKNTQPIMDTDGSYFVYSKLNVQKSNWEAGNTFTCSVLHEGLHNHHTEKSLSHSPG light: DIVLTQSTSSLSASLGDRVTISCRASQDISNYLNWYQQKPDGTVKLLIYYTSRLHSGVPSRFSGSGSGTDYSLTISNLEQEDIATYFCQQGNTLPWTFGGGTKLEIKADAAPTVSIFPPSSEQLTSGGASVVCFLNNFYPKDINVKWKIDGSERQNGVLNSWTDQDSKDSTYSMSSTLTLTKDEYERHNSYTCEATHKTSTSPIVKSFNRNEC | 
1.36 | 0.00379 | 0.421 | 19.1 |  | murine antibody molecule MA-III (mouse IgG1 / mouse Ckappa) (antibody, V domains shown, also called murine anti-IL-11 monoclonal antibody MA-III) VH: EVKLEQSGAEVVKPGALVKMSCKASGYTFTSYWMHWVKQRPGQGLEWIGVIDPSDSYTTYNQKFKGKATLTVDTSSSTGYMQLSSLTSEDSAVYYCSQYGYDVNWYFDVWGAGTTVTVSS VL: DIVMTQTTLSLPVSLGDQASISCRSSQSIVHSNGNTYLEWYLQKPGQSPKLLIYEVSNRFSGVPDRFSGSGSGTDFTLKISRVEAEDLGVYYCFQGSHVPWTFGGGTKLEIKA | 
 |  |  |  | 0.0585 | humanized antibody molecule HA-II-D (antibody, human IgG1, kappa, L234A L235A, V domains shown) VH: QVQLVESGGGLVKPGGSLRLSCAASGFTFSDYYMFWVRQAPGKGLEWVATISDGGTYTYYPDSVKGRFTISRDNAKNSLYLQMNSLRAEDTAMYYCARDGGYVSSPEAMDYWGQGTSVTVSS VL: DIVLTQSPSSLSASVGDRVTITCRASQDISNYLNWYQQKPGGTVKLLIYYTSRLHSGVPSRFSGSGSGTDYTFTISSLQPEDIATYFCQQGNTLPWTFGGGTKVEIKR | 
 |  |  |  | 0.0849 | humanized antibody molecule HA-II-C (antibody, human IgG1, kappa, L234A L235A, V domains shown) VH: QVQLVESGGGLVKPGGSLRLSCAASGFTFSDYYMFWVRQAPGKGLEWVSTISDGGTYTYYPDSVKGRFTISRDNAKNSLYLQMNSLRAEDTAVYYCARDGGYVSSPEAMDYWGQGTLVTVSS VL: DIVLTQSPSSLSASVGDRVTITCRASQDISNYLNWYQQKPGKAPKLLIYYTSRLHSGVPSRFSGSGSGTDYTFTISSLQPEDIATYYCQQGNTLPWTFGGGTKVEIKR | 
 |  |  |  | 0.0261 | humanized antibody molecule HA-I-D (antibody, human IgG1, kappa, L234A L235A, V domains shown) VH: QVQLVESGGGLVKPGGSLRLSCAASGFTFSDYYMFWVRQAPGKGLEWVATISDGGTYTYYPDSVKGRFTISRDNAKNSLYLQMNSLRAEDTAMYYCARDGGYVSSPEAMDYWGQGTSVTVSS VL: DIVLTQSPSSLSASVGDRVTITCRASQDISNYLNWYQQKPGGAVKLLIYYTSRLHSGVPSRFSGSGSGTDYTFTISSLQPEDIATYFCQQGNTLPPTFGGGTKVEIKR | IC50, reporter gene (BaF/3-GP130-STAT3-Luc cells stimulated with IL-11 protein, luciferase) [6]: 0.465 µg/mL; IC50 of inhibition of TIMP-1 secretion by MRC-5 cells stimulated with IL-11-mFc [7]: 0.657 µg/mL; IC50 [8]: 128 µg/mL; IC50 [9]: 13.8 µg/mL
 |  |  |  | 0.102 | humanized antibody molecule HA-II-A (antibody, human IgG1, kappa, L234A L235A, V domains shown) VH: QVQLVESGGGLVKPGGSLRLSCAASGFTFSDYYMFWVRQAPGKGLEWVATISDGGTYTYYPDSVKGRFTISRDNAKNSLYLQMNSLRAEDTAVYYCARDGGYVSSPEAMDYWGQGTLVTVSS VL: DIVLTQSPSSLSASVGDRVTITCRASQDISNYLNWYQQKPGKAPKLLIYYTSRLHSGVPSRFSGSGSGTDFTFTISSLQPEDIATYYCQQGNTLPWTFGGGTKVEIKR | 
